Results on 2 molecules are retold here after paper PMC10948360, “Tropomyosin 1-I/C coordinates kinesin-1 and dynein motors during oskar mRNA transport” (Nature Structural & Molecular Biology, 2024).

The target of test [1] is T1, Khc motor domain (Khc 1-365) (Drosophila, UniProt P17210 1-365).
T1 construct: Kinesin heavy chain (Khc), Drosophila, amino acids 1-365 (motor domain); GST removal with 3C protease is stated for NMR; for the pull-down the prey is printed as Khc 1–365 without GST; source: E. coli BL21-CodonPlus(DE3)-RIL, purified (GSTrap, SEC)
T1 sequence (looked up): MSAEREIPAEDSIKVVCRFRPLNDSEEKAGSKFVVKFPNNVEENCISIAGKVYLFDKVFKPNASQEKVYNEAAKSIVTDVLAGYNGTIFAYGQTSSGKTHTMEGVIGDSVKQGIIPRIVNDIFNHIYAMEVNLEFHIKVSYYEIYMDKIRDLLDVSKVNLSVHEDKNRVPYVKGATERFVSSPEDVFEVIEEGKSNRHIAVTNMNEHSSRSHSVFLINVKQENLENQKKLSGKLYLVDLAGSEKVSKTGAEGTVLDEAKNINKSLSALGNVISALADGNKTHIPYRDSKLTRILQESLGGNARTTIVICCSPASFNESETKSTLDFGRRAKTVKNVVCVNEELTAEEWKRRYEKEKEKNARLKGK
Kind of test: NMR titration; 1H-15N HSQC of 50 µM 15N-labeled Khc 855–975 at 298 K, 25 mM NaPO4 pH 6.5, 150 mM NaCl; unlabeled partners added, with or without U10 RNA. The note with it: both partners purified.

The target of test [2] is T1, Khc motor domain (Khc 1-365). The test can be described thus: pull-down; GST-Khc 855–975 (5 or 10 µM) as bait on glutathione Sepharose, 50 µM Khc 1–365 as prey, Tm1 1–335 at 5 to 15 µM; GF150 buffer, 4 °C. The note with it: both partners purified.

B1: Khc tail (Khc 855-975) (domain or fragment)
chain: not shown
notes: 15N-labeled (13C,15N for assignment) in the NMR experiments; used unlabeled in microtubule pelleting; also called tail domain
For B1, the binding result in test [1] was “binds”.

B2: GST-Khc 855-975 (domain or fragment)
chain: not shown
B2: the binding result in test [2] was “binds”.
